Experimental findings from patent US6339069 are described below.

Data set [1] has as its target T1, N-acetyl-alanyl-alanyl-dioleoyl phosphatidylethanolamine.
T1 chain: AA

The target in data set [2] is T2, MeO-suc-ala-ala-pro-val-DOPE (1,2-Dioleoyl-sn-glycero-3-phosphoethanolamido-val-pro-ala-ala-sucMeO).
T2 chain: AAPV

B1: proteinase K (protein)
chain: AAQTNAPWGLARISSTSPGTSTYYYDESAGQGSCVYVIDTGIEASHPEFEGRAQMVKTYYYSSRDGNGHGTHCAGTVGSRTYGVAKKTQLFGVKVLDDNGSGQYSTIIAGMDFVASDKNNRNCPKGVVASLSLGGGYSSSVNSAAARLQSSGVMVAVAAGNNNADARNYSPASEPSVCTVGASDRYDRRSSFSNYGSVLDIFGPGTSILSTWIGGSTRSISGTSMATPHVAGLAAYLMTLGKTTAASACRYIADTANKGDLSNIPFGTVNLLAYNNYQA
Regarding B1, in data set [1], the “cleavage of N-Ac-AA-DOPE to DOPE, TLC” value is “Upon incubation of N-Ac-AA-DOPE liposomes with proteinase K the peptide-lipid was cleaved and DOPE was generated”; the “cleavage of N-Ac-AA-DOPE, HPLC” value is “Both elastase and proteinase K cleaved N-Ac-AA-DOPE to a similar extent”; the “cleavage of N-Ac-ala-ala-DOPE, HPLC” value is “both proteinase K, with a known cleavage site, and the nonspecific mixture of proteases found in pronase, effected cleavage of N-Ac-ala-ala-DOPE from the liposomes”; the “conversion of N-acetyl-ala-ala-DOPE to DOPE, 31P NMR integration” value is “approximately 20% of the N-acetyl-ala-ala-DOPE was converted to pure DOPE in sample B”.

B2: Human leukocyte elastase (protein)
chain: IVGGRRARPHAWPFMVSLQLRGGHFCGATLIAPNFVMSAAHCVANVNVRAVRVVLGAHNLSRREPTRQVFAVQRIFENGYDPVNLLNDIVILQLNGSATINANVQVAQLPAQGRRLGNGVQCLAMGWGLLGRNRGIASVLQELNVTVVTSLCRRSNVCTLVRGRQAGVCFGDSGSPLVCNGLIHGIASFVRGGCASGLYPDAFAPVAQFVNWIDSIIQ
Take B2: in data set [2], the “cleavage of MeO-suc-ala-ala-pro-val-DOPE, TLC, HLE dose titration” value is on record as “between 5-40 micrograms of HLE were effective in cleaving the AAPV-PE”; the “conversion of MeO-suc-AAPV-DOPE to DOPE, 31P-NMR” value is recorded as “Treatment with 5 micrograms of elastase/100 nmol lipid yielded 20% DOPE”; the “conversion of exposed (outer leaflet) MeO-suc-AAPV-DOPE to DOPE, 31P-NMR, assuming unilamellar vesicles” value was “the minimal percentage conversion of exposed MeO-suc-AAPV-DOPE (SEQ ID NO:42) to DOPE in the outer leaflet lipid of this preparation was 40%”; the “kinetics of cleavage of MeO-suc-ala-ala-pro-val-DOPE, TLC” value was “The peptide was cleaved by HLE in as little as 1 hour at 37 degrees C”. For the same protein, in data set [1], the “cleavage of N-Ac-AA-DOPE to DOPE, TLC” value is given as “Treatment of N-Ac-AA-DOPE liposomes with elastase generated a product corresponding to DOPE”; the “cleavage of N-Ac-AA-DOPE, HPLC” value was “Both elastase and proteinase K cleaved N-Ac-AA-DOPE to a similar extent”.
